Legend:
[1] = target: cpSRP54-his (A. thaliana) (UniProt P37107); test: co-IP
[2] = target: Trx-cpFtsY (UniProt O80842); test: pull-down
UniProt O80842, sequence (O80842 41-366): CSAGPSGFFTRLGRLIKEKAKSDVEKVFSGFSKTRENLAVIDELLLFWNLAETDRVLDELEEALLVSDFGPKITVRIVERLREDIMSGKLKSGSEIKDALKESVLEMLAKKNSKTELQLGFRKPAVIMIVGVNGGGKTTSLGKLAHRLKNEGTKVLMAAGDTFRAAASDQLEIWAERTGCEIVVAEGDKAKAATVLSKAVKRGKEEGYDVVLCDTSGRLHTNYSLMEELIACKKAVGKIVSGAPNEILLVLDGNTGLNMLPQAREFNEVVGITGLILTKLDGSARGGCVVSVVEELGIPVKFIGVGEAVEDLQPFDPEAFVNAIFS

UniProt P37107, sequence (P37107 76-564): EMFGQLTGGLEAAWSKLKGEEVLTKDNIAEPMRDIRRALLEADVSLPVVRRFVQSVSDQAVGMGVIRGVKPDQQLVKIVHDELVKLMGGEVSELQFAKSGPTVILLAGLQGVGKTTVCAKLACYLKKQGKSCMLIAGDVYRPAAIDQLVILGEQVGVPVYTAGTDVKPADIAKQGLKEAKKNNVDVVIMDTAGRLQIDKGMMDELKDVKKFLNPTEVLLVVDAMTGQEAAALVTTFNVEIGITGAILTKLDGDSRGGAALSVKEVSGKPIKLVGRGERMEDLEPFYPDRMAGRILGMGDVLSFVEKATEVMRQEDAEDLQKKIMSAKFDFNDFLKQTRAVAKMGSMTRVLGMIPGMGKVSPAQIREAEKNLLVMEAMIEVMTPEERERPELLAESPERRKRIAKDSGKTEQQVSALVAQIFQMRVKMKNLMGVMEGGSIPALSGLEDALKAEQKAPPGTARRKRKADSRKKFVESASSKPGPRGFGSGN

ALB3 (from UniProt Q8LBP4 57-462) (natural protein)
fold change of the coprecipitate with cpFtsY added against cpSRP alone [1]: > 2 fold | fold change of coprecipitated ALB3 with cpSRP added against cpFtsY alone [2]: > 6 fold
